This is an account of results in article PMC12772503.

The chains are these.
B1: myc-Syd-N2 (Syd^1-529) R492 [Drosophila] / HA-Rab2^Q65L [Drosophila] (parent)
chain 1: MMDNDDALLNNGGPQSGAETVYGTEDNNMVMSEKNEQVVSIVQQLAGSIYQEFERMINRYDEDVVKNLMPLLVNVLECLDASYRINQEQDVEVELLREDNEQLVTQYEREKSARKQSEQKLLEAEDLAEQENKELATRLESVESIVRMLELKHKNSLEHASRLEEREADLKKEYNKLHERYTELFKNHVDYMERTKMLMGSTHSQMSTASERMDVSRARLNPVARSSGPVSYGFASLENSVMLDTETICSVGSQSDDSGPPSLQNELDNLSGTLERGAATDALQQQHHATSPQSPDSSPVVPNVPTNVGRSTTKKEQRSDNNLYQELSFQDNEESEENEIVTGSWVHPGEYASSANDNYFGMGKEVENLIMENNELLATKNALNIVKDDLIVKVDELTGEVEIVREELNAMQQSRTKLRQRISELEDELKKAKEQVKQQNTEQEENDVPLAQRKRFTRVEMAMVLMERNQYKERLMELQEAVRLTEILRASRTVDNLDRKSKQSIWKYFSNLFTPSNRPTERVADGLGG
chain 2: MSYAYLFKYIIIGDTGVGKSCLLLQFTDKRFQPVHDLTIGVEFGARMITIDGKQIKLQIWDTAGLEAFRSITRSYYRGAAGALLVYDITRRETFNHLTTWLEDARQHSNSNMVIMLIGNKSDLDSRREVKKEEGEAFAREHGLVFMETSARTAANVEEAFINTAKEIYEKIQEGVFDINNEANGIKIGQQHSPTNPSLPGAGGAAGAANSGCC

The variants in the first assay derive from B1. The assay is described as follows: Co-IP (anti-HA IP, anti-myc immunoblot quantification). Particulars: with HA-Rab2^Q65L [Drosophila]; HEK cell lysates; single experiment 1 of 3 (solid line); P < 0.005 vs WT printed; parent: 17; read off a plot. A general note: In western blotting, separated proteins are transferred to a membrane and probed.
Regarding chain 1 V482A R483A L484A T485A E486A I487A R489A S491A R492A, the response came to 11 a.u.

The assay is the same for the next values; noted with them: with HA-Rab2^Q65L [Drosophila]; HEK cell lysates; single experiment 2 of 3 (upper dashed line); P < 0.005 vs WT printed; parent: 17; read off a plot.
As for chain 1 V482A R483A L484A T485A E486A I487A R489A S491A R492A, the response was determined as 6.8 a.u.

The assay is the same for the next values; noted with them: with HA-Rab2^Q65L [Drosophila]; HEK cell lysates; single experiment 3 of 3 (lower dashed line); P < 0.005 vs WT printed; parent: 17; read off a plot.
Regarding chain 1 V482A R483A L484A T485A E486A I487A R489A S491A R492A, the response came out at 4.7 a.u.
